Measurements from EP4729546A1 (Jiangsu BioJeTay Biotechnology Co., Ltd., dated 2026).
Residue numbers refer to the chain shown, from its start. Read-outs that look alike come from different tables or passages of the source. Values belong to the molecule of their own block, whether it stands above or below them.

Key:
huFXII-his (human) [1] = target: huFXII-his (human) (UniProt P00748); assay: cell-based or functional assay
huFXII-his (human) [2] = target: huFXII-his (human) (UniProt P00748); assay: cell-based or functional assay; remark: listed apart in the source
[3] = target: FXIIa (purchased from Enzyme Research Lab) (UniProt P00748); assay: cell-based or functional assay
huFXII-his (human) [4] = target: huFXII-his (human) (UniProt P00748); assay: ELISA, huFXII-his coated at 1 µg/ml, HRP anti-human secondary, OD450
huFXII-his = target: T1, huFXII-his (human, UniProt P00748 20-615); assay: cell-based or functional assay
T1 sequence (looked up): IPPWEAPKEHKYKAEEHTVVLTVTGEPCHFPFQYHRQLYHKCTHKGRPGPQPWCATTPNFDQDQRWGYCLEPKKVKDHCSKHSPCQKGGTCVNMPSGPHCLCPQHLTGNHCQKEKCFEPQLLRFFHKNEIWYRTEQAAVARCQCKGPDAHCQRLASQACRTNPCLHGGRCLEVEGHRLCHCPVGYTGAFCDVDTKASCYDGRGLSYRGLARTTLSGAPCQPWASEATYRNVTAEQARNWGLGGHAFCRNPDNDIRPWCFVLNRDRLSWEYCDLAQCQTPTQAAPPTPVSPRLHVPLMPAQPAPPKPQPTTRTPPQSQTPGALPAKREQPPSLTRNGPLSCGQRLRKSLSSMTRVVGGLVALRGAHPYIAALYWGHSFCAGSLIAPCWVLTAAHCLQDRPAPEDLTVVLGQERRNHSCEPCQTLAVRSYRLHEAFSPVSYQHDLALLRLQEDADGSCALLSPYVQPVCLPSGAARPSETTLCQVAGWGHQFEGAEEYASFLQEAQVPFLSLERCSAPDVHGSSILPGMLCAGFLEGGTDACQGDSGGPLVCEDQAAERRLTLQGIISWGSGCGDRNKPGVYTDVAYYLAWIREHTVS

[5] = target: T2, FXIIa (purchased from Enzyme Research Lab) (UniProt P00748 20-615, limits assumed); assay: cell-based or functional assay
T2 sequence (looked up): T1 sequence (looked up)

Molecule: CSL312 (antibody)
IC50 of inhibition of cleavage of chemical substrate S2302 by FXIIa (OD405) (huFXII-his (human) [1]): 0.0258 µg/mL
IC50 of inhibition of cleavage of chemical substrate S2302 by FXIIa (OD405) (huFXII-his (human) [2]): 0.0232 µg/mL
IC50 of inhibition of the cleavage of PK proenzyme (prekallikrein) by FXIIa, read with pKa substrate CS-3102 (OD405) [3]: 0.11 µM
EC50 (huFXII-his (human) [4]): 0.421 µg/mL

B2: FX-Y17 (antibody, V domains shown)
VH: EVQLLESGGGLVQPGGSLRLSCAGSGFSFGSQTMSWVRQAPGKGLEWVSSISVISGRTYYADSVKGRFTISRDNSKNTLYLQMNSLRAEDTAVYYCTKSHAFDVWGQGTMVTVSS
VL: EIVLTQSPATLSVSPGERATLSCRASQSVYSNLAWYQQKPGQAPRLLIYGASTRATGIPARFSGSGSGTEFTLTISSLQSEDFAVYYCQQYNKWPLSFGGGTKVEIK
IC50 of inhibition of cleavage of chemical substrate S2302 by FXIIa (OD405) (huFXII-his (human) [1]): 0.0213 µg/mL
IC50 of inhibition of cleavage of chemical substrate S2302 by FXIIa (OD405) (huFXII-his (human) [2]): 0.0251 µg/mL

B3: FX-Y17-Y35 (antibody, V domains shown)
VH: B2 VH with T58D, T97A
VL: B2 VL with N32A, N92H
IC50 of inhibition of cleavage of chemical substrate S2302 by FXIIa (OD405) (huFXII-his): 0.0139 µg/mL

B4: FX-Y17-Y20 (antibody, V domains shown)
VH: B2 VH with T58S
VL: B2 VL with N32A, N92H
IC50 of inhibition of cleavage of chemical substrate S2302 by FXIIa (OD405) (huFXII-his (human) [1]): 0.0187 µg/mL
EC50 (huFXII-his (human) [4]): 0.127 µg/mL

B5: FX-Y17-Y21 (antibody, V domains shown)
VH: B2 VH with V53H, T97A
VL: B2 VL with N32A, Y91N
IC50 of inhibition of cleavage of chemical substrate S2302 by FXIIa (OD405) (huFXII-his (human) [1]): 0.0132 µg/mL
EC50 (huFXII-his (human) [4]): 0.101 µg/mL

B6: FX-Y17-Y23 (antibody, V domains shown)
VH: B2 VH with T58S, K98R
VL: B2 VL with Y30W, N92H
IC50 of inhibition of cleavage of chemical substrate S2302 by FXIIa (OD405) (huFXII-his (human) [1]): 0.0129 µg/mL
EC50 (huFXII-his (human) [4]): 0.0942 µg/mL

B7: FX-Y17-Y28 (antibody, V domains shown)
VH: B2 VH with S99Q
VL: B2 VL with N32A, N92H
IC50 of inhibition of cleavage of chemical substrate S2302 by FXIIa (OD405) (huFXII-his): 0.0267 µg/mL

B10: FX-Y17-Y26 (antibody, V domains shown)
VH: B2 VH
VL: B2 VL with N32A, N92H
IC50 of inhibition of cleavage of chemical substrate S2302 by FXIIa (OD405) (huFXII-his): 0.0163 µg/mL

B11: FX-Y17-Y36 (antibody, V domains shown)
VH: B2 VH with G56K
VL: B2 VL with N32A, N92H
IC50 of inhibition of cleavage of chemical substrate S2302 by FXIIa (OD405) (huFXII-his): 0.0155 µg/mL

B12: FX-Y17-Y34 (antibody, V domains shown)
VH: B2 VH with G56R, K98R
VL: B2 VL with Y30W, N92H
IC50 of inhibition of cleavage of chemical substrate S2302 by FXIIa (OD405) (huFXII-his): 0.0282 µg/mL
IC50 of inhibition of the cleavage of PK proenzyme (prekallikrein) by FXIIa, read with pKa substrate CS-3102 (OD405) [5]: 0.0271 µM

B14: FX-Y17-Y22 (antibody, V domains shown)
VH: B2 VH with V53Y, K98R
VL: B2 VL with Y30W, N92H
IC50 of inhibition of cleavage of chemical substrate S2302 by FXIIa (OD405) (huFXII-his (human) [1]): 0.0202 µg/mL
EC50 (huFXII-his (human) [4]): 0.187 µg/mL

B15: FX-Y17-Y33 (antibody, V domains shown)
VH: B2 VH with T58K
VL: B2 VL with N32A, N92H
IC50 of inhibition of cleavage of chemical substrate S2302 by FXIIa (OD405) (huFXII-his): 0.022 µg/mL

B16: FX-Y17-Y24 (antibody, V domains shown)
VH: B2 VH with V53Y, S99G
VL: B2 VL with N32A, N92H
IC50 of inhibition of cleavage of chemical substrate S2302 by FXIIa (OD405) (huFXII-his): 0.0166 µg/mL

B17: FX-Y17-Y1 (antibody, V domains shown)
VH: B2 VH with G56R
VL: B2 VL with N32A, N92H
IC50 of inhibition of cleavage of chemical substrate S2302 by FXIIa (OD405) (huFXII-his (human) [1]): 0.0237 µg/mL
EC50 (huFXII-his (human) [4]): 0.151 µg/mL

B19: FX-Y17-Y39 (antibody, V domains shown)
VH: B2 VH with V53H, A101D
VL: B2 VL with N32A, Y91N
IC50 of inhibition of cleavage of chemical substrate S2302 by FXIIa (OD405) (huFXII-his): 0.0422 µg/mL

B22: FX-Y17-Y38 (antibody, V domains shown)
VH: B2 VH with G56R, T97A
VL: B2 VL with N32A, N92H
IC50 of inhibition of cleavage of chemical substrate S2302 by FXIIa (OD405) (huFXII-his): 0.016 µg/mL

B23: FX-Y17-Y6 (antibody, V domains shown)
VH: B2 VH with V53Y
VL: B2 VL with N32A, N92H
IC50 of inhibition of cleavage of chemical substrate S2302 by FXIIa (OD405) (huFXII-his): 0.0157 µg/mL

B25: FX-Y17-Y4 (antibody, V domains shown)
VH: B2 VH with I51S, S52H
VL: B2 VL with S31Y, N92H
IC50 of inhibition of cleavage of chemical substrate S2302 by FXIIa (OD405) (huFXII-his (human) [1]): 0.0116 µg/mL
EC50 (huFXII-his (human) [4]): 0.205 µg/mL
IC50 of inhibition of the cleavage of PK proenzyme (prekallikrein) by FXIIa, read with pKa substrate CS-3102 (OD405) [5]: 0.0306 µM

More lines, now with the values ahead:

IC50 of inhibition of cleavage of chemical substrate S2302 by FXIIa (OD405) (huFXII-his (human) [2]): 0.0398 µg/mL
B1: FX-Y39 (antibody, V domains shown)
VH: QVQLQQSGGGLVQTGGSLRLACAGTGFTFSDYSMNWVRQAPGKGLEWVSYISNSRSRSSKYYADSVKGRFTISRDNAKNSLYLQMNSLRAEDTAVYYCARIGYCKNGVCGGAYDYWGQGTLVTVSS
VL: EIVLTQSPSAMSASVGDRVTITCRASQAIRNNLAWFQQKPGKVPKRLMNTASSLESGVPSRFSGSGSGTEFTLTITSLQPEDFASYYCLQYHDSPWTFGQGTKLEIK

IC50 of inhibition of cleavage of chemical substrate S2302 by FXIIa (OD405) (huFXII-his): 0.0146 µg/mL
B8: FX-Y17-Y43 (antibody, V domains shown)
VH: B2 VH with I51S, K98R
VL: B2 VL with N32A, N92H

IC50 of inhibition of cleavage of chemical substrate S2302 by FXIIa (OD405) (huFXII-his): 0.0141 µg/mL
B9: FX-Y17-Y48 (antibody, V domains shown)
VH: B2 VH with T58A, K98R
VL: B2 VL with N32A, N92H

IC50 of inhibition of cleavage of chemical substrate S2302 by FXIIa (OD405) (huFXII-his): 0.0225 µg/mL
B13: FX-Y17-Y50 (antibody, V domains shown)
VH: B2 VH with T58R
VL: B2 VL with N32A, N92H

IC50 of inhibition of cleavage of chemical substrate S2302 by FXIIa (OD405) (huFXII-his (human) [1]): 0.0221 µg/mL
EC50 (huFXII-his (human) [4]): 0.358 µg/mL
IC50 of inhibition of the cleavage of PK proenzyme (prekallikrein) by FXIIa, read with pKa substrate CS-3102 (OD405) [5]: 0.0235 µM
B18: FX-Y17-Y45 (antibody, V domains shown)
VH: B2 VH with V53H, T97A
VL: B2 VL with N32A, Y91N, K93R

IC50 of inhibition of cleavage of chemical substrate S2302 by FXIIa (OD405) (huFXII-his): 0.0155 µg/mL
B20: FX-Y17-Y51 (antibody, V domains shown)
VH: B2 VH with T58N, K98R
VL: B2 VL with N32A, N92H

IC50 of inhibition of cleavage of chemical substrate S2302 by FXIIa (OD405) (huFXII-his): 0.0179 µg/mL
B21: FX-Y17-Y47 (antibody, V domains shown)
VH: B2 VH with T58D, K98R
VL: B2 VL with N32A, N92H

IC50 of inhibition of cleavage of chemical substrate S2302 by FXIIa (OD405) (huFXII-his): 0.0177 µg/mL
B24: FX-Y17-Y42 (antibody, V domains shown)
VH: B2 VH with F29L, T58M
VL: B2 VL with N32A, N92H

IC50 of inhibition of cleavage of chemical substrate S2302 by FXIIa (OD405) (huFXII-his): 0.019 µg/mL
B26: FX-Y17-Y41 (antibody, V domains shown)
VH: B2 VH with T58R, T97A
VL: B2 VL with N32A, N92H
